Assay results reported in the supplement of paper PMC10065799, “High-throughput profiling of sequence recognition by tyrosine kinases and SH2 domains using bacterial peptide display” (eLife, 2023).

Assays:
[1] = biological target: Fes (UniProt P07332); assay: phosphorylation enrichment, bacterial display (enrichment ratio); higher = better substrate or ligand; peptides without Tyr show the background
[2] = system: AncSZ; assay: as above
[3] = biological target: FGFR3 (UniProt P22607); assay: as above
Chain of FGFR3 (P22607 whole entry, looked up): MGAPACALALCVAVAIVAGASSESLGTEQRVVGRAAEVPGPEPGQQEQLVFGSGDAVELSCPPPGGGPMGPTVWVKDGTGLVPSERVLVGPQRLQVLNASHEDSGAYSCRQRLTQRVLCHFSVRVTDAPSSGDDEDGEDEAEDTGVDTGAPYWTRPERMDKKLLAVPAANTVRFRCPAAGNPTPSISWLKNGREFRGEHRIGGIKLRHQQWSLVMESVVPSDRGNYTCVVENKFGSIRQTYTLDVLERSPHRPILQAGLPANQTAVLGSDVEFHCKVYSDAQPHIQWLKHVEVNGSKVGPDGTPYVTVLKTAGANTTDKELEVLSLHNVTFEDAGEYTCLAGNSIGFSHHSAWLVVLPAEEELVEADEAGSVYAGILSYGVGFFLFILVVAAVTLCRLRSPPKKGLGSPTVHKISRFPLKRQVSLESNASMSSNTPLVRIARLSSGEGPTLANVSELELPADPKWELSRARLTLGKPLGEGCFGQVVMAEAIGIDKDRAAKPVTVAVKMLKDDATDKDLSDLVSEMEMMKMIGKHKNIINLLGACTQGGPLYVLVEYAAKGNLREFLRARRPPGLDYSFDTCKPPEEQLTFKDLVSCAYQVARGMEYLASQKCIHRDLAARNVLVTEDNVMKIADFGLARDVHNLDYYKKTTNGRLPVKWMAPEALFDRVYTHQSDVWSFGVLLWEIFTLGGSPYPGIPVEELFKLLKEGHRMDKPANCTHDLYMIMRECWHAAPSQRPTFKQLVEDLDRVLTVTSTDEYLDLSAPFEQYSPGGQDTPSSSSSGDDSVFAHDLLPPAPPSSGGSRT

[4] = biological target: Jak2 (UniProt O60674); assay: as above
Chain of Jak2 (O60674 whole entry, looked up): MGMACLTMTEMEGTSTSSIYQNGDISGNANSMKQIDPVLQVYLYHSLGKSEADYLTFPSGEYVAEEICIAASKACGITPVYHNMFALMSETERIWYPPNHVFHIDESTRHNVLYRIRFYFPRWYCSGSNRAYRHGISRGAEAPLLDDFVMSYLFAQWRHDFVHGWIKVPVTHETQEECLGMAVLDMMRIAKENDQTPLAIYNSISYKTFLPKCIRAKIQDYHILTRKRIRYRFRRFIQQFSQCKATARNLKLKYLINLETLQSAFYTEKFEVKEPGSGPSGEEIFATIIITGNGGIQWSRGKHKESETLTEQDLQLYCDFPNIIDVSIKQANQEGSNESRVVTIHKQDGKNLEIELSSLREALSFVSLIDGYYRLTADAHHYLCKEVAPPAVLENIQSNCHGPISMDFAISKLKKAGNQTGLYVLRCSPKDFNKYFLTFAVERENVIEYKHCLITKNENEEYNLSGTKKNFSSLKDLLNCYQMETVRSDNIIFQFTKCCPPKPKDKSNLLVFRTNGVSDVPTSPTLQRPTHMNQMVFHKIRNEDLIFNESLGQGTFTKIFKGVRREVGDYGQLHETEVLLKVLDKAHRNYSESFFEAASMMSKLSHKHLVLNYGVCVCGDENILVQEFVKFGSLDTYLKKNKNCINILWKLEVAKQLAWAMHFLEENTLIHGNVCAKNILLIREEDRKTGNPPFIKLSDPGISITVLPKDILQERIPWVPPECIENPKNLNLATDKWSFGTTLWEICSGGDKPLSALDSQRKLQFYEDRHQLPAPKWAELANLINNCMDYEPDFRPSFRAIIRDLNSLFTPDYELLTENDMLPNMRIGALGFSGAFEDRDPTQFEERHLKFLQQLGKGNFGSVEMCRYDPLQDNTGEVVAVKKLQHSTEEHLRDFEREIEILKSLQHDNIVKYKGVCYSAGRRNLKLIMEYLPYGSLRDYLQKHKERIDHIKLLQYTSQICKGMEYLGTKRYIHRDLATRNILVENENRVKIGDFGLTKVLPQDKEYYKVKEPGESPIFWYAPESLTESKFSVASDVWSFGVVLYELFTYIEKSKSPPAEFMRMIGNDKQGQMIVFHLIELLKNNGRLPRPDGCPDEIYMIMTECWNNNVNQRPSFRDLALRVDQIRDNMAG

[5] = biological target: EPHB1 (UniProt P54762); assay: as above
Chain of EPHB1 (P54762 whole entry, looked up): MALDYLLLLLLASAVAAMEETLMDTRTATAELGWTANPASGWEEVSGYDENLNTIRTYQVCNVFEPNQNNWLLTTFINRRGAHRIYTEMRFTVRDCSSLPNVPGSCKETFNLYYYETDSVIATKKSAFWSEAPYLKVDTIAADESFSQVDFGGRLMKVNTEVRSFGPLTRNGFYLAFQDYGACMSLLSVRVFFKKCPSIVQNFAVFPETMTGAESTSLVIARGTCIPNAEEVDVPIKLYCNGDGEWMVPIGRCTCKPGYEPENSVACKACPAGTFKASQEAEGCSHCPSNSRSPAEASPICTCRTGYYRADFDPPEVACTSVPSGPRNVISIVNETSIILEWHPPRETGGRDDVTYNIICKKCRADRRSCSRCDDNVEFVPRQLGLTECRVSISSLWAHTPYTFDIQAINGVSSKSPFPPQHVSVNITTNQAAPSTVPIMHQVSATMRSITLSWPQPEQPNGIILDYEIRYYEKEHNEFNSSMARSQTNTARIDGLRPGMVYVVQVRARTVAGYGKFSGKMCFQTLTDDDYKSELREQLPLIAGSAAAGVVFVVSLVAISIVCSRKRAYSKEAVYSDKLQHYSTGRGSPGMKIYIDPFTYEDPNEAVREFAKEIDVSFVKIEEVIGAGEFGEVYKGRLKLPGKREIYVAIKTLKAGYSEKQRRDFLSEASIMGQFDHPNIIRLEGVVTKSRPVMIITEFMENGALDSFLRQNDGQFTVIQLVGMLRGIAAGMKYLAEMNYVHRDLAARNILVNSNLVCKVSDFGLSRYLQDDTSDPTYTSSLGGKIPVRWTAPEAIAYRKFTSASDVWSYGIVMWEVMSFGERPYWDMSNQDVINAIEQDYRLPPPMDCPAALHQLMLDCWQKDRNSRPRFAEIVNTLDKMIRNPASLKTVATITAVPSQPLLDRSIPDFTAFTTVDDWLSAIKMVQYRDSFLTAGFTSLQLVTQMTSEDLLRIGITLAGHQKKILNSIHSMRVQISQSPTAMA

[6] = biological target: FGFR1 (UniProt P11362); assay: as above
Chain of FGFR1 (P11362 whole entry, looked up): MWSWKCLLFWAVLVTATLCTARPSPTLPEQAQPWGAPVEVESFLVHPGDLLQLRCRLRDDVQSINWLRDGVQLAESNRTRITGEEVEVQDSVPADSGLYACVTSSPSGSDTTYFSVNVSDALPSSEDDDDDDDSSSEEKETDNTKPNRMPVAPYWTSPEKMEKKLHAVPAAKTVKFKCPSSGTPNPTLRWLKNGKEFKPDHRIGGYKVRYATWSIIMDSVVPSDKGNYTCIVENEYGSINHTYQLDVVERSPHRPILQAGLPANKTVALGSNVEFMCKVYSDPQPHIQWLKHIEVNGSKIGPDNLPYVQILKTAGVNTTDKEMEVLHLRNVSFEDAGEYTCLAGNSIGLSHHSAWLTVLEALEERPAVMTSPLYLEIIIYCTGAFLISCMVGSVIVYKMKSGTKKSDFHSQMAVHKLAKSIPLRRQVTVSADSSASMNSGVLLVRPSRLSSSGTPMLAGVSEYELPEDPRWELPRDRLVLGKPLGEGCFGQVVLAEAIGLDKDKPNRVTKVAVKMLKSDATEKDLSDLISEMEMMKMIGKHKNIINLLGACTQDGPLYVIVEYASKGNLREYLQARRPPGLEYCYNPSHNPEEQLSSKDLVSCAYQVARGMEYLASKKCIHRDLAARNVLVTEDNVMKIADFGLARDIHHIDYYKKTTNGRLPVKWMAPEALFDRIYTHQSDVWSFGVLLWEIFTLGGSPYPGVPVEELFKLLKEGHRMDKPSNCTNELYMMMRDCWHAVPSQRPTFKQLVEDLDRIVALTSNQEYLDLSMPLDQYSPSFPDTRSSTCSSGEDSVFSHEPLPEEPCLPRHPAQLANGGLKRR

[7] = biological target: MERTK (UniProt Q12866); assay: as above
Chain of MERTK (Q12866 whole entry, looked up): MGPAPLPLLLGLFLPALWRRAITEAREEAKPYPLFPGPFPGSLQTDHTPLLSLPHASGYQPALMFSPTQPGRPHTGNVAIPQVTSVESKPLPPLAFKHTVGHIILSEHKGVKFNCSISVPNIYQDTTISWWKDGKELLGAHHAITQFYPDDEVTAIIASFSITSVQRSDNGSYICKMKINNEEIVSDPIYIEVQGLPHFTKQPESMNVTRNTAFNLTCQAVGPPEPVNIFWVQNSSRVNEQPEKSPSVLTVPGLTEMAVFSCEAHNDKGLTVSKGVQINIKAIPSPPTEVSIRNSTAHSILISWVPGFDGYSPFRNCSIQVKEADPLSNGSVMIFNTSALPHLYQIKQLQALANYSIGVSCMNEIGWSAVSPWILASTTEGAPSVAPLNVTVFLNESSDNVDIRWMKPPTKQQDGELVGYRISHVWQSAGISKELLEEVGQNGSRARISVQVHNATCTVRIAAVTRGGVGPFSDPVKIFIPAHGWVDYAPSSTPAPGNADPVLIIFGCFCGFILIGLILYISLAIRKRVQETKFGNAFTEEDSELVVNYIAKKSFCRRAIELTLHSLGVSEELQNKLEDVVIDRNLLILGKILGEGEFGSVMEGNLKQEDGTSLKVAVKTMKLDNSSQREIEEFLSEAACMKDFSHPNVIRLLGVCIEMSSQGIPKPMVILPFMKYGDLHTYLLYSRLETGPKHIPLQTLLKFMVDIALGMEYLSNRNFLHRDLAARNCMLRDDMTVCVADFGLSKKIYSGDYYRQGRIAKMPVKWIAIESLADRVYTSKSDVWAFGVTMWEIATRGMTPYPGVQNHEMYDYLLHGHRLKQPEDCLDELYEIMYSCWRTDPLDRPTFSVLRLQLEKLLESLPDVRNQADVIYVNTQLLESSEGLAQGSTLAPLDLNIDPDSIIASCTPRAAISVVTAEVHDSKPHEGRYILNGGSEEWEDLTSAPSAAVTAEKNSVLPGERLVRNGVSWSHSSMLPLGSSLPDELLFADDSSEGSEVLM

[8] = biological target: EPHB2 (UniProt P29323); assay: as above
[9] = system: c-Abl (mouse); assay: as above
[10] = system: c-Src; assay: as above
[11] = biological target: Fyn (UniProt P06241); assay: as above
[12] = biological target: Hck (UniProt P08631); assay: as above
[13] = system: Fer (mouse); assay: as above
[14] = biological target: c-Src SH2; assay: SH2 binding enrichment of the phosphorylated peptide, bacterial display (enrichment ratio); higher = better substrate or ligand; peptides without Tyr show the background
[15] = biological target: SHP2-C SH2; assay: as above
[16] = biological target: Grb2 SH2 (UniProt P62993); assay: as above
Chain of Grb2 SH2 (P62993 whole entry, looked up, the tested form may be a part): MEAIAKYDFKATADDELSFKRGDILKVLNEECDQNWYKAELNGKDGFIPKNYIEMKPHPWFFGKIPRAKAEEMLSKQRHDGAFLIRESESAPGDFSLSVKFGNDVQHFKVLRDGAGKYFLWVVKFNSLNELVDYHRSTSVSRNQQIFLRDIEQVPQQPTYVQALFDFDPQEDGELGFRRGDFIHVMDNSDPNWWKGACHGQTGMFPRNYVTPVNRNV
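Wherever SH2 binding enrichment of the phosphorylated peptide, bacterial display is given: peptide library displayed on the E. coli surface as eCPX fusions, selected cells deep-sequenced, score is each peptide's frequency after selection divided by its frequency in the input.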
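Wherever phosphorylation enrichment, bacterial display is given: 11-residue human phosphosite peptides and single-mutation variants displayed on the E. coli surface, counted by deep sequencing, each peptide's frequency after selection divided by its frequency in the unselected input library; frequency after pTyr selection over input frequency; kinase dosed for 20-30% of maximal phosphorylation in three min.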

Sequence | phosphorylation enrichment [1] | phosphorylation enrichment [2] | phosphorylation enrichment [3] | phosphorylation enrichment [4] | phosphorylation enrichment [5] | phosphorylation enrichment [6] | phosphorylation enrichment [7] | phosphorylation enrichment [8] | phosphorylation enrichment [9] | phosphorylation enrichment [10] | phosphorylation enrichment [11] | phosphorylation enrichment [12] | phosphorylation enrichment [13] | SH2 binding enrichment [14] | SH2 binding enrichment [15] | SH2 binding enrichment [16]
YAKSVYWDNTL [NUP107_Y296_E298D] | 0.839 | 0.848 | 0.576 | 0.69 | 0.621 | 0.515 | 0.435 | 0.515 | 0.557 | 0.736 | 0.599 | 0.678 | 0.871 | 0.587 | 0.9 | 0.858
YDCGMYSHLQG [LGR4_Y848] | 1.21 | 1.47 | 1 | 0.944 | 1.5 | 1.04 | 7.03 | 1.29 | 2.38 | 3.69 | 2.36 | 5.59 | 2.87 | 2.85 | 0.811 | 1.03
YDGKDYIALNE [HLA-A_Y147] | 1.27 | 1.41 | 0.953 | 1.18 | 1.06 | 0.843 | 0.457 | 0.792 | 0.909 | 0.48 | 0.532 | 0.583 | 0.551 | 0.452 | 0.604 | 0.692
YEEDSYVTRSQ [RET_Y905_K907T] | 1.12 | 1.21 | 0.964 | 1.04 | 0.59 | 0.604 | 0.468 | 0.565 | 0.69 | 0.496 | 0.499 | 0.543 | 0.548 | 2.16 | 0.628 | 0.906
YFCRWYRNQKS [EREG_Y144_R147Q] | 0.48 | 0.565 | 0.548 | 0.371 | 0.481 | 0.473 | 0.523 | 0.385 | 0.444 | 0.477 | 0.447 | 0.372 | 0.454 | 0.275 | 0.545 | 0.712
YFVVEYRNQKP [MUC17_Y4332_D4334N] | 1.36 | 1.72 | 9.02 | 2.32 | 0.931 | 11.1 | 4.22 | 0.842 | 0.722 | 0.836 | 0.842 | 0.605 | 0.738 | 2.83 | 3.19 | 1.58
YGEYRYRSVIK [CFTR_Y517_D513G] | 0.826 | 0.714 | 0.644 | 0.599 | 0.458 | 0.454 | 0.463 | 0.462 | 0.745 | 4.36 | 7.2 | 3.67 | 0.49 | 0.817 | 0.819 | 0.769
YGGLRCGYGVL [KRTAP20-2_Y13_Y13C] | 1.01 | 0.857 | 0.632 | 0.794 | 0.623 | 0.826 | 0.369 | 0.543 | 0.589 | 1.05 | 1 | 1.5 | 0.473 | 0.569 | 0.642 | 0.829
YIIFIYAMKKK [SLCO1B1_Y645_L643F] | 0.536 | 0.602 | 0.507 | 0.545 | 0.273 | 0.655 | 0.849 | 0.239 | 0.465 | 0.287 | 0.343 | 0.473 | 0.433 | 1.23 | 1.68 | 2.31
YKEQGYHRLPS [RIN1_Y681_P686S] | 0.508 | 0.531 | 0.485 | 0.763 | 0.245 | 0.485 | 0.413 | 0.366 | 0.455 | 0.439 | 0.366 | 0.279 | 0.363 | 0.751 | 0.853 | 0.802
YKWAVYCIIGR [NUP93_Y391_R388W] | 1.48 | 1.23 | 0.751 | 1.08 | 3.37 | 0.527 | 0.953 | 1.83 | 0.981 | 1.18 | 1.04 | 1.29 | 0.646 | 1.36 | 1.42 | 2.41
YMRGMYFRMTD [PLA2G6_Y541_K545T] | 1.16 | 1.21 | 0.908 | 1.41 | 0.63 | 0.592 | 0.773 | 0.566 | 0.771 | 0.427 | 0.434 | 0.578 | 0.481 | 1.2 | 1.83 | 0.959
YPKAHYHWLVL [APTX_Y214_R213H] | 1.15 | 0.823 | 1.94 | 1.16 | 0.505 | 2.54 | 0.61 | 0.482 | 0.846 | 0.487 | 0.368 | 0.501 | 0.571 | 1.2 | 1.43 | 1.6
YPPTHYIRRVP [SLC4A11_Y820] | 0.678 | 0.754 | 0.43 | 0.76 | 0.407 | 0.448 | 0.469 | 0.492 | 0.601 | 0.449 | 0.444 | 0.369 | 0.346 | 0.443 | 0.596 | 0.675
YQGGTYSKAST [FGG_Y380] | 0.526 | 0.867 | 0.43 | 0.373 | 0.33 | 0.423 | 0.43 | 0.419 | 0.388 | 0.424 | 0.449 | 0.424 | 0.387 | 0.716 | 0.557 | 0.846
YQLENYCNGGG [INS_Y108] | 0.812 | 0.768 | 0.477 | 0.461 | 0.686 | 0.536 | 0.426 | 0.572 | 0.473 | 0.455 | 0.57 | 0.568 | 0.55 | 0.76 | 0.697 | 0.862
YQNGMYGLHQD [SGSH_Y89_H84Y] | 0.808 | 0.874 | 0.631 | 0.712 | 0.487 | 0.605 | 0.566 | 0.687 | 0.748 | 0.957 | 0.751 | 1 | 0.55 | 1.11 | 0.585 | 5.48
YRQNGYIPGSN [PCDHGA1_Y895_V894G] | 0.547 | 0.485 | 0.439 | 0.467 | 0.381 | 0.399 | 0.405 | 0.404 | 0.47 | 0.422 | 0.384 | 0.405 | 0.423 | 0.452 | 0.896 | 0.846
YSKDIYKRVTG [PANK2_Y405_N404I] | 0.51 | 0.5 | 0.342 | 0.447 | 0.38 | 0.409 | 0.401 | 0.419 | 0.435 | 0.394 | 0.415 | 0.487 | 0.551 | 0.487 | 0.612 | 0.813
YSMGCYEFSLG [HMGCL_Y198_I200F] | 1.39 | 2.47 | 1.37 | 1.06 | 1.52 | 1.23 | 3.64 | 1.37 | 0.864 | 2.37 | 2.12 | 1.25 | 4.95 | 0.701 | 0.864 | 0.8
YYSSEYHCVGG [CTSC_Y345_Y347C] | 1.04 | 3.84 | 9.28 | 3.05 | 7.69 | 11.5 | 8.36 | 8.59 | 6.69 | 3.66 | 2.49 | 2.58 | 1.26 | 0.834 | 0.576 | 0.726
